# Test results reported in the domain aggregation screens of Martell et al. (2025).
# Experiment: soluble fraction after stress (log2 fold change); higher = more stays soluble; pooled small domains, quantitative proteomics
# Details: stress: 50 degC
# In short: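 The measure of aggregation propensity here is the base-two logarithm of the fold change in the soluble amount of each protein after stress. A higher value means more of that protein stays in solution. Stress was applied at 50°C to pooled libraries of small protein domains, read out by high-throughput quantitative proteomics.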
row,Sequence,soluble fraction (log2)
1,HMRSVTLQTDREGDILYVDGKQIGVSPQRLELSYGVHTIRAERGEQHTEKELEVTETGGETVVTLGFG,0.129
2,HMRSYTPGSAFRLSSVPVYNAETGPSIGVRSGTYYIHSLPVSNGRIRMTNLISRVGKPGQVSFWVEISR,-2.45
3,HMRTAELEVWDDDELNDVVKLIQNNHNINTLKLRFQENVSFSGLSLIAAVLTKQSIILEIEY,0.0488
4,HMRTDQYHYLAWKQVADELGIPFDEQVNERLRGVSRMASFDIILERYDGTMSDEEKIHWTDKKNEIYKSM,-0.948
5,HMRTGLSGMIGEIGIVKQAIDPEGKVAVHGELWKARADVALAAGQTVRVVAVDGLTMTVEATDSK,-0.0264
6,HMRTIPDALIGRPYESVETAIVLEGLQAKRTEVFHPTIRPGTVIRLEPTSGSELLRDGVVEIFVSQGPETT,-0.159
7,HMRTITIDDSIAGKRLDEALTLLGAESSRTKVKLLFSSPNGVLVNGEKEKPHYRVEAGDVIQFGELPKK,0.271
8,HMRTKEGLASQLEKIPGIGPVKRKALLKKFGSIDAIAAASKEELMLTDGITSSLADAIRDYF,0.00122
9,HMRTLKDSTEYLIRSMLLRGEMKVGEIYSANALAKELNISNSPVREAMMSLVDRGLLENVRNRGFRVV,-1.44
10,HMRTLRENIMDYFKQQTIIQKSSVILLPMSKRQLADYFGVQRPSLFRELKKLKEEGIIEINNRTITIK,-1.27
11,HMRTSIWTAIAHSLRSDIGSGVYGPDDKLPTESALAARFGVNRHTVRHAIKALTDEGLVLPRRGAGVFVTS,-0.21
12,HMRTSPGADYEKTYYTIQSGDNLGAIAEKMGVSVADLKDWNDISGTKIYAGKKLVIYVKKGST,0.183
13,HMRTTTGSEGMIGSIGKAKTDLAPDGKIFIHGELWDATSSSPVSAGQKIEVTQIEGLKLHVKPVL,0.268
14,HMRTVLSDETYLRIREMLLTHDIAPGERINIDALARELDVSQTPVREALARLESEDLVTKEPLRGYTATK,-0.017
15,HMRTYEHALTEEEKELILIVSNLSEYKSLPPSQIVPKLADLGIYIASESSFYRVLRAHNQLHHRGR,-2.56
16,HMRTYYEILGVSKNASLHEIQKAYRELALKYHPKNNSDPTAEEKFTQINEAYTHLSDAARRRSYDDL,0.222
17,HMRVGADLTQRERELLALMAQGMSNQEIAKRLEIAVPTVKFHITNILDKLQVGNRTEAVIAALEHKLVP,-0.58
18,HMRVKLVKKSILASGGENIRVDKFLSNHILTMTRTQIKKLFLDGLVQVNKSFVKPGSILKGNEIITFSIPE,-1.8
19,HMRVNINVSENILDWVMKRVNPSVLSSKQGELLYAWKEGRKVPTYNQIEKMSKVTGIPLGYFFLEKPPVE,-0.569
20,HMRVPQWLVDKIAAAGIDTHRSGPALKALAAKAGTPEQLDQAIARAKALRRRTGSTQSLNVGLLGSILEGT,-0.106
21,HMRVQELARDLGVEADTLIALLRQMGIPVTGARSAINDAQQAKVLAKIERERRAGHSDPAKAIQAVLEEAS,0.121
22,HMRVSNADALIGRRGKANSDIRRGDYGWVAIDGDVWKSKLADDITEDIPMGAIVEVLSRDSIILTVKP,-0.324
23,HMRWAAIMGREVAAHSTPESLVEGKLHIRTDTTAWATQLRLMSADIVRRLNEVLGEGTVLEVDVRG,-1.96
24,HMRWSDQKEIVTLSLDHVLVEKGRKTKEYSWREFRTFTAFEIKKSSKDQINLGFKSKGNTVIIGNF,-0.919
25,HMSAAELFEERQRQYLRGRKSTKNIADNHGTIILRAGETITDQAIDKAKVAGKLVELVMNNE,0.142

row,Sequence,soluble fraction (log2)
1,HMSADDSDDRKGIDAWLTQLLANGSVKATEVYSAADAAGYSKDQAKRAKRRLAIEAVREAMDGPWFWRLD,-0.616
2,HMSAEDQRRASQEAAYRFMQVMAGNEAGFEDAARALFAGDNHRFEVLIQSWPDDVRDHVSLLSVDAFA,-0.615
3,HMSAEVMLRRLIDENDPSSENARYILAVMLERKKILAPVDVKNEKKSKMLFYEHQKTGEAFIVRDP,-0.267
4,HMSAEVSEIEIQRIISYYRNQNGVPDKYNEIFDRIAAQYTDEQLKVISNFLPSDVKQYLSFNNEKYKSLG,-0.295
5,HMSAGKKSFTNSEFRRFLDALGEGLIVKHKKLGEGVVVEIRGDKAVIQFGDEQRLYELKTLYEYDLLR,-0.12
6,HMSALAQDGDLVQLQGAGYKSHILRLKAGEVLQTHRGVIQHDAVIGQPWGARLQSHTGSPFYLFQPGLADL,-0.522
7,HMSALTELPVKTVNGKKYHYYVVKQHETVYALSKRFGITPEQLIKYNPSAEDGLQIDQELLFPATEI,0.161
8,HMSANVSMEEALRRTSQAHSLAGKWMRRVLQMAQGRDLIEQMQREAQEAHLPELIGMSVQLEFIRRG,-0.11
9,HMSAPEGWMNRGDLRDNFRIQYPVTDRIIASYRESHPEWFGTYLSKTSKSLEYFHPDLVAKVREAAN,-0.101
10,HMSAPQKWDGSLQDFIRFKQEAKTLMDNIPNKRLALNAILETISDGKMRKRLAKYDGPESALKSLELEFGN,-0.0592
11,HMSAQDLIVRRDSARIEARVTEISPTEIRYKRASNPDGPTYVLPLGDVRSIRYANGEEEVFAPA,-0.138
12,HMSAQQTFLRDAMRRLNMTRDSFAERIGVRRRALDTWLLPEDSSEYRTMPSIVEKFVGEILGREA,-0.453
13,HMSARKVTVALHTRDHADRLRRLLKHEGVSADLVAARLSHKLTDHPIEVRVNEDDIPAVLRIIENIEIF,-1.31
14,HMSASLPAAVEDPDLPYRVGAKLRHARWGEGLLVGIQREGSDVIATVHFASVGRKRLSLQYAHLEE,-0.41
15,HMSATIMVLRASEDIPVGTEIKDNHLTTVEVGSYGLPEGAINDKDTVLGKVAQTNIIKGDYFFPQKLGG,0.152
16,HMSDAQIKASINDLWFKYNLETFAKLNLNVNQGRVLVTGIVQNPEHRLEAIRLVWTVDGVQQVINEIQVAE,-0.795
17,HMSDDIPVHYRLDVNDAARALKLLTDNGFSAETAESGLNVYMTRLQSAEAARLLVENNIAVYGLTAV,0.0267
18,HMSDDLIILGYSMLNNALKAFHIDPDSIKKKHWDKLAQDYHLKNKNQILTDIALGKRVNIMVAHQLTTIMD,-0.633
19,HMSDDSYLVALAEAYKNATSWDIRRQVLSIMTGVSSYKEISRYIPGLTQYRLSISNLHRLQYGRAAPVP,0.0583
20,HMSDEAGKVLQLLRENGGYLPYNDRSDPEDIYAFFSMSKKTFKMTAGNLYKQKKIIFTNTGIKLTE,-0.856
21,HMSDEVNTDKAFRAIDSTLNRNVKGIAPRDHTLLRNTMITYFKSNDYIDYDTMIQSTLENYKPTELEQDKM,0.165
22,HMSDGHLIKVLEVLDGGEAFLGRTANGGTARFSLGQLADIRRGSVVFVSEDRWEVVPDSAWPEI,-0.528
23,HMSDGIPDLRNLNFLSPQEGDYLNESDRVFGVTINGDGQAYPLRIVNAHEMVNDTLGGEPISLM,0.16
24,HMSDHKNANFTKVVKVAQELLQDEDDKAGITPTLIEEKISAVLAMNRRWAEGLDRAAVADELIRRFSIW,-0.42
25,HMSDIATLVPGPTDAELAASALRGLDAALDADTPVRLSLGEPGGEVEVPRSVLAALARVLDSFAHGEGVTL,-0.136

row,Sequence,soluble fraction (log2)
1,HMSDIISEIESQVMFKLATYEITNATEKMIEALINSEINDRRTLGFPIPNEQGRIFLVRSIQNKLAV,-1.05
2,HMSDIIVQGNRRLDTDLIITDSQIREIGTDEKSLSLAVKNLYKTGYFENVQIFKDNSVVFINVKENQ,-0.103
3,HMSDIQKGTQINLVNEPLYVSSKTSIVSTYKTGTYYTWGFEANNRIAITNKLENIGVKGQVTGWINKP,-1.1
4,HMSDKFNALWIILNKLDKKEKVTARSLMEDLEVSERSVYRYITTLQVAGFPVDYDRAVNSYVFSDGYTLK,-4.08
5,HMSDKLTLPVQINGVFRYTIEINPSMQKDEIIDLVKNEERTAKYKQDKEIKNVIVVPGKIVNIII,0.0263
6,HMSDLPLLEHARQNLSDDEFRILELTTIYGYRRVEVAKMLGEPISTINWKYNKLIKKVKTFYGEVYN,-1.02
7,HMSDLVATKEQVVEAYKYGLGLGLDNSTLKMLLFDIRGEDVADQDKISDGMTVSEIEIWKEGMRTIAEEYL,-0.508
8,HMSDMIGQNIRRLRTEKQMTQKALADKLFVTAQAVSRWENGEVEPSLSTVTEIARIFNVSADEILGI,-0.0125
9,HMSDPDPAEQALLRQFMTRYAAYRRRGQHPAGAFRTASLEVFGQEPSGDLRDVIVDLESGLV,-0.137
10,HMSDPELNDNEKKIYDIIFNKKSMDLTELKNLSELSNKQWDKGIKSLSKQDFVKVIKTEEALIVELV,-0.302
11,HMSDPSAQADALFNEGKTAEAFNVLLRLIEDSPEDQREDYRVRLLDLFRIAGNTPEVKAARRRLSALLM,-0.252
12,HMSDRFVRIVMNDGTVKLGQMISEDADFIRLKTNNLGELNIPKYLVLDMMDLTRSEYVRLSISNAG,0.169
13,HMSDSAFAEMRRELEALRNSNAEYERALSNFFPEAEDKALAAEAFYQNREYDELVAEREEANVIDGLKR,-0.094
14,HMSDSISLTLNGDLRRFRAHATIADLVRDIGLDPVKVAVERNLEIVSRSTLEDVVLADGDRLEIVHFV,-1.33
15,HMSDSLVLTGVAYVDGKPVVTLFDKVKKESLVVTDQPNLKGWTLVEATQSSDIKRATAKVNIGGEPVSIRY,0.117
16,HMSDTFENILQRLIKATGRKNASEMANALGLSPQSVYSAKTKGKIPPAWIFAAAERFNASADWIYFGY,-1.01
17,HMSDTSAIEKIIDEVLSDESSQKAINDIKNGNEKVYGFLVGQVMKKSQGKANPGLVQKMLREKIAK,0.212
18,HMSDYKSALQEAVQTNKQSIEYVLIKESGPAHNKTFTFEVRIDNISYGVGTAKSKKEAEQIAAKDALDKLV,-0.0635
19,HMSDYVLLYSGLNTSDTTFLAYSFQEKGIRYKMPNPDEIEVRVQDVDQARRIAAGAQLGGQVS,-0.424
20,HMSEEGTIPDVSGQDEASAQKALENAGFTNIKSEAVYSEEEQGTVIDTNPTAGTKVSKDTEITMQVSKGSE,-0.34
21,HMSEEKLVFSIPDDIETMRIDKAIALETHLSRAQIAELFKENKILLNSKNSKRSEKVKPGDKISLEFIPKI,-0.00517
22,HMSEEVKSQPISILDLSTRASNGLKNEGIETIGELVKYSEDELLGLDKFGQNSLKEIKKKLEEIGLTLKEH,-0.0419
23,HMSEFLTIVRAVYSGLSRRKVAAMHKVSRNTVSLYLRQARDQGWLTLEDLEKLDDLTVSQGVS,-2
24,HMSEFVIPLAKYNKALYTQVSLGMRFRMLFETEDSGVRRYMGTITGIGDLDPIRWKNSHWRNLQV,0.111
25,HMSEHLTLVVSDEDAGHRVDQFLVSRLAHMTRSQIQKLIKDGQVTIDTKLVRASTTVHTDNIVTIEFPPAV,-0.505
